According to patent publication US20110301120A1, “USE OF A CHITOSAN POLYMER FOR HEPARIN NEUTRALIZATION” (UNIWERSYTET JAGIELLONSKI, priority 2009, published 2011):

Experiments:
[1] = if not neutralized or removed from the bloodstream; cited from earlier work
[2] = Interaction of heparin with cationically-modified chitosan at pH 7.4 (Azure A method); format: binding
Protocol: The concentration of in solution was determined spectrophotometrically using Azure A. 0.9 ml of proper buffer was added to 0.1 ml of heparin solution, followed by addition of 1.0 ml of Azure A solution at 8.0·10^−5 M and the absorption spectrum of the obtained solution was measured. The concentration of heparin was determined on the basis of the intensity of absorption band at 630 nm, which corresponds to monomeric molecules of Azure A. The concentration of free heparin after addition of chitosan was determined by mixing at defined proportions of chitosan solutions in acetic acid. After 10 minutes of energetic shaking the mixtures obtained were centrifuged at 3000 rpm in order to separate the insoluble complex. The concentration of free heparin was determined in the supernatant.
The interaction of modified polymers with heparin in the aqueous solution at pH 7.4 was studied (FIG. 2). By measuring heparin concentration with Azure A method it was shown that cationically-modified chitosan effectively complexes free heparin in solution at pH 7.4.
The efficiency of heparin complexation by both polymers obtained was compared with the efficiency of protamine, a heparin-reversal agent commonly used in medicine (Table 1).

[3] = Dynamic light scattering: size of polymer objects and of their complexes with heparin; format: physicochemical; details: PBS
Protocol: The UV spectra were recorded using a diode-array HP 8452A spectrophotometer in quartz cuvettes with 1 cm optical path. The microscopic images were obtained using Nikon TE-2000 fluorescence microscope. The size of aggregates in suspensions was determined using a Zetasizer Nano ZS instrument from Malvern Instruments Ltd.
Using dynamic light scattering technique the size of objects formed by protamine and ChGl1 in the aqueous solution at pH 7.4 was measured (FIG. 3). The solutions of polymers were prepared in the PBS buffer. The heparin-protamine and heparin-ChGl complexes were obtained by mixing the respective solutions at the volume ratio corresponding to the minimum amount of the polycation needed to completely bind heparin in the solution.
For such mixtures the size and polydispersity of particles were measured.

[4] = fast injection, dogs; cited from earlier work
[5] = minimum amount of polycation needed to completely bind heparin

## protamine
[1]
  patients with adverse effects: about 10%
[2]
  Mass required to bind 1 mg of heparin in PBS buffer at pH 7.4: 1.2661 mg
[3]; pH 7.4, without heparin
  size (diameter) of objects formed by the polymer: about 4 nm
[3]; [5]
  diameter of aggregates with heparin: ≤ 10 μm
  polydispersity of complexes with heparin: very polydisperse
[4]
  hemodynamic effect: severe hypotension
